Tested on: MS2 coat protein
Assay: apparent KD of MS2 coat protein; designed switch direction (-1 OFF switch, 1 ON switch): -1; higher = weaker reporter binding
Outline: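 Three titration conditions were used: no input, 200 uM small-molecule ligand, and an oligonucleotide input. In each, SNAP-549-labelled MS2 coat protein was raised from 0.7 or 1.5 nM, doubling, to 3 µM over designed RNA switches transcribed on Illumina chips by stalled E. coli RNA polymerase. Curve fits of normalised cluster fluorescence gave values whose per-design median over clusters is the apparent KD.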

[1] = input ligand: microRNA oligo, concentration not stated
[2] = Eterna round: R95, input ligand: microRNA oligo, concentration not stated

In the case of “GGUGGACAUGAGGAUCACCCAUGUGAGGAUAUCGGCUGGCUAGCGGCGGACGGCUUCUCGAGAAGGCGCAUUGU [Exclusion 1 V83] (Eterna round: R96, puzzle: Exclusion 1)”, the “apparent KD of MS2 coat protein” value (input ligand: FMN 200 uM) is reported as 68.8 nM, the “apparent KD of MS2 coat protein” value [1] is reported as 42.2 nM and the “apparent KD of MS2 coat protein” value (input ligand: none) is reported as 64.5 nM.
In the case of “CAUUAUGUUGAGGAUAUGCACCAGCUCACUGACGCAGAAGGCGACACAUGAGGAUCACCCAUGUCAGUUCGCGU [salish99_ex6_r004_429] (Eterna round: R97, puzzle: Exclusion 6)”, the “apparent KD of MS2 coat protein” value (input ligand: FMN 200 uM) is reported as 23.5 nM and the “apparent KD of MS2 coat protein” value (input ligand: none) is reported as 17 nM.
With “CGUCUGUAAGGAUAUGGUAGCGUUUACAUGAGGAUCACCCAUGUUACAUGGGACUAGAGACUAGAAGGUACGAACG [EX5 #51] (Eterna round: R97, puzzle: Exclusion 5)” the “apparent KD of MS2 coat protein” value (input ligand: FMN 200 uM) was 589 nM and the “apparent KD of MS2 coat protein” value (input ligand: none) was 2520 nM.
With “GAGUGACAUGAGGAUCACCCAUGUGAGGAUAUCGGACGGACCAAAUUAACAACACCCGCGAGAAGGCACAUCGG [Exclusion 1 V21] (puzzle: Exclusion 1)” the “apparent KD of MS2 coat protein” value [2] was 110 nM.
For “AUAGGGUCAGGAUAUUGCGCAGUGGACAUGAGGAUCACCCAUGUGAACUUCGUACCGGGCCAAGAAGGGACAGAAA [Tiersoaso] (puzzle: Exclusion 5)”, the “apparent KD of MS2 coat protein” value (Eterna round: R95, input ligand: FMN 200 uM) was 21.7 nM, the “apparent KD of MS2 coat protein” value [2] was 11.3 nM and the “apparent KD of MS2 coat protein” value (Eterna round: R95, input ligand: none) was 13.4 nM.
With “AGAUCUAGGACAGGAUAUACAGAUGGCUUCAUCGAAGAUGAAGCCAUCACAUGAGGAUCACCCAUGUAGAAGGGUCCUAGAUCA [Omei Exc(NG) 2Av4] (Eterna round: R96, puzzle: Exclusion NG 2)” the “apparent KD of MS2 coat protein” value (input ligand: FMN 200 uM) was 19.2 nM, the “apparent KD of MS2 coat protein” value [1] was 9.47 nM and the “apparent KD of MS2 coat protein” value (input ligand: none) was 13.2 nM.
For “CCGGAAUUACAGGAUAUAGGAGUCGAUAGACACCUAGAAGGGUAGACAUGAGGAUCACCCAUGUGUCCUACCGG [Fiskers Ex 6 - 85] (puzzle: Exclusion 6)”, the “apparent KD of MS2 coat protein” value [2] was 176 nM.
With “GCUGCGCGAGGAUAUGCGGUUCGCGCGGUGGCCCGUGGCGGACAUGAGGAUCACCCAUGUAGAAGGCGUGCGGG [Apr-15 SS2-59] (puzzle: Exclusion 2)” the “apparent KD of MS2 coat protein” value [2] was 11.2 nM.
With “GGUGGCUACGUGAGACAUGAGGAUCACCCAUGUUACCGAACGAAGGAUAUAGAAGCACAUAGCUACUAGAAGGUUGAAAAGAAA [Laeratveti] (Eterna round: R96, puzzle: Exclusion NG 3)” the “apparent KD of MS2 coat protein” value (input ligand: FMN 200 uM) was 22.6 nM, the “apparent KD of MS2 coat protein” value [1] was 24.1 nM and the “apparent KD of MS2 coat protein” value (input ligand: none) was 29.9 nM.
With “AAAACAAAGCUAGGAUAUUGUCCGAUGUAGCGAUAAGAAGGAGCAGAGUACGUCUGGUCCACAUGAGGAUCACCCAUGUACAAA [Inmaon] (Eterna round: R96, puzzle: Exclusion NG 1)” the “apparent KD of MS2 coat protein” value (input ligand: FMN 200 uM) was 183 nM, the “apparent KD of MS2 coat protein” value [1] was 79.6 nM and the “apparent KD of MS2 coat protein” value (input ligand: none) was 67.5 nM.
In the case of “CCAGAGGAAGGAUAUUAAGGCGUAUACAUGAGGAUCACCCAUGUCCUACACUUCGCACUAUAAGAAGGUUCCCGGA [Eternabot (Original) Solution 39] (Eterna round: R97, puzzle: Exclusion 5)”, the “apparent KD of MS2 coat protein” value (input ligand: FMN 200 uM) is reported as 193 nM and the “apparent KD of MS2 coat protein” value (input ligand: none) is reported as 121 nM.
For “CCUCAGUAAGGAUAUCAGCUUAAGGAGGUGGUAAAGAGAGCUGAGAAGGUACAUGAGGAUCACCCAUGUUAAAA [Zatite] (Eterna round: R96, puzzle: Exclusion 4)”, the “apparent KD of MS2 coat protein” value (input ligand: FMN 200 uM) was 193 nM, the “apparent KD of MS2 coat protein” value [1] was 47.1 nM and the “apparent KD of MS2 coat protein” value (input ligand: none) was 57.2 nM.
With “CUUGUUUAUGUGAGGAUAUACUGUUAGUAAUGUUUGUAGAAGGUACAUGAGGAUCACCCAUGUUUAUUUUUUUU [JR_BME4_Sub044] (puzzle: Brourd's mod of Exclusion 4)” the “apparent KD of MS2 coat protein” value [2] was 20.2 nM.
“UACAUGAGGAUCACCCAUGUUUUGUCGUGUAUGGUAUUUAUCUAGGAUAUCAUUUAAUUUAGUUAUGAGAAGGAGAAUAUUAAU [JMF's solution 85] (Eterna round: R96, puzzle: Exclusion NG 3)” was tested, and the “apparent KD of MS2 coat protein” value (input ligand: FMN 200 uM) was 31.3 nM, the “apparent KD of MS2 coat protein” value [1] was 17 nM and the “apparent KD of MS2 coat protein” value (input ligand: none) was 27.8 nM.
With “UAACUACAUGAGGAUCACCCAUGUCAGGAUAUGCCGUUAAAUUAACAUCAACAUACGGGUAGAAGGGACAACGU [1st #3] (Eterna round: R97, puzzle: Exclusion 1)” the “apparent KD of MS2 coat protein” value (input ligand: FMN 200 uM) was 31.5 nM and the “apparent KD of MS2 coat protein” value (input ligand: none) was 29.8 nM.
